The values below come from patent publication US20170369542A1 (Pieris, published 2017).

Changes are numbered by the printed parent chain. Where no end group is shown, it is not given here.

B1: synthetic non-modified human Hepcidin-25 (peptide)
peptide: DTHFPICIFCCGCCHRSKCGMCCKT
modifications: not fully specified (bridges); ends and bridges not checked
notes: also called hHepcidin-25; non-biotinylated human hepcidin
B2: lipocalin mutein of SEQ ID NO: 1 (designed binder)
chain: QDSTSDLIPAPPLSKVPLQQNFQDNQFHGKWYVVGLAGNEVLREDKDPMKMWATIYELEEDKSYNVTIVMFLAKKCEYLFQTFVPGSQPGEFTLGDIKSSPGRTSGLVRVVSTNYNQHAMVFFKTVWQNREVFWITLYGRTKELTSELKENFIRFSKSLGLPENHIVFPVPIDQCIDG
notes: also called Lcn2 mutein; hNGAL mutein
B3: pegylated mutein of SEQ ID NO: 8 (designed binder)
chain: B2 chain with E59K, F71P, K74E, S87C, D96G, S100G, T125V, I135V
modifications: branched 40k PEG-maleimide on Cys 87
B4: pegylated mutein of SEQ ID NO: 1 (designed binder)
chain: B2 chain with S87C
modifications: branched 40k PEG-maleimide on Cys 87
B5: lipocalin mutein of SEQ ID NO: 13, linked to PEG40 (designed binder)
chain: B2 chain with E59K, F71P, K74E, S87C, D96G, S100G, T125V, I135V
modifications: branched 40k PEG-maleimide on the free Cys at position 87
notes: hNGAL mutein with Ser 87 back-mutated to Cys and PEGylated there
B6: lipocalin mutein of SEQ ID NO: 8 (designed binder)
chain: B2 chain with E59K, F71P, K74E, D96G, S100G, T125V, I135V
notes: also called Lcn2 mutein

For assay [1], the target named is T1, lipocalin mutein of SEQ ID NO: 14, linked to PEG40 (branched 40k PEG-maleimide on the free Cys at position 87).
T1 construct: hNGAL mutein with Ser 87 back-mutated to Cys and PEGylated there
T1 chain: B2 chain with S87C
Put plainly: competition ELISA, free human hepcidin against captured biotinylated hepcidin. For orientation: An ELISA detects its analyte on a solid surface through an enzyme-linked reagent.

Assay [2] has as its target B5. Described as above.
Assay [3] concerns the target murine ferroportin (FPN) carboxy-terminally fused with green fluorescent protein (GFP) (murine), Q9JHI9. Put plainly: cell-based or functional assay.
For assay [4], the target named is T2, cynomolgus Hepcidin-25 (cynomolgus, UniProt A7XEI3 60-84, not fully specified).
T2 construct: mature
T2 peptide: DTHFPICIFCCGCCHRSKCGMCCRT
Put plainly: SPR, Biacore T100, mutein amine-coupled to CM5 chip, hepcidin as analyte, 25 C. The protocol:
(§1) Lipocalin muteins were immobilized to a CM5 sensor chip using standard amine chemistry: The surface of the chip was activated using EDC and NHS. Subsequently, 20 μg/mL lipocalin mutein solutions in 10 mM sodium acetate pH 4.5 (60 μg/mL in 10 mM sodium acetate pH 4.0 for pegylated lipocalin mutein) were applied at a flow rate of 5 μL/min until a surface density of 500-700 resonance units (RU) for non-modified lipocalin muteins and of approximately 1600 RU for pegylated lipocalin with the sequence of SEQ ID NO: 13 was achieved. Residual activated groups were saturated with ethanolamine. The reference channels were treated with EDC/NHS following ethanolamine (blank immobilization). All reagents and materials were purchased from GE Healthcare.
(§2) Serial dilutions of human and cynomolgus Hepcidin-25 in running buffer (HBS-EP+, GE Healthcare, BR-1006-68) were applied to the prepared surface. The following parameters were used for the binding assay: contact time 60 s, dissociation time 180-360 s, flow rate 30 μL/min. All measurements were performed on a Biacore T100 instrument (GE Healthcare) at 25° C.
(§3) Data were evaluated with Biacore T100 Evaluation software (V 2.0.1). Double referencing was used. The 1:1 Binding model (Langmuir) was used to fit the raw data.
A general note: In SPR one partner is held on a chip, and binding of the other changes the refractive index at the surface.

Assay [5] addresses T2, cynomolgus Hepcidin-25. Kind of assay: direct ELISA on cynomolgus hep-25, mutein titrated. The protocol: (§4) A “direct” ELISA was performed to verify the binding affinity and specificity of the selected Lcn2 muteins. Therefore, a constant concentration of 1 μg/ml C-terminal biotinylated hepcidin (Bachem AG, CH) was captured on the surface of a polystyrol plate (Greiner, GE) via Neutravidin (Thermo Scientific, 5 μg/ml). Two step dilution series of purified Lcn2 muteins were incubated with the captured hepcidin for 1 h at room temperature and detected either via the Strep-tag II using a rabbit anti-strep-tag II polyconal antibody (GenScript, USA) or by using a scaffold-specific polyclonal rabbit antibody. In both cases an anti rabbit IgG-HRP conjugate (Abcam, UK) was employed as secondary detection antibody.
(§5) The absorption ΔA at […] was measured in an ELISA reader (Tecan, GE) and the data were fitted with Graphpad Prism software (Statcom, USA).

Assay [6] concerns the target B1. Kind of assay: competition ELISA: non-biotinylated human hepcidin-25 titrated against a constant concentration of mutein; free mutein detected on plate-captured biotinylated human hepcidin. The protocol: The binding affinity of the Lcn2 muteins to non-modified hepcidin-25 in solution was evaluated in a competition ELISA approach. Therefore, a constant concentration of 1 μg/ml C-terminal biotinylated human hepcidin (Bachem AG, CH) was captured on the surface of a polystyrol plate (Greiner, GE) via Neutravidin (Thermo Scientific, 5 μg/ml, GE). In parallel a two step dilution series of non-biotinylated human hepcidin starting from 1 μM was incubated with a constant concentration of hepcidin-specific mutein for 1 h at room temperature in a non-protein binding 96 well polypropylene plate (Nunc, GE). The constant concentration of lipocalin muteins corresponds to the EC₅₀ of the respective muteins as determined in a direct ELISA as described above in this example. In the following the mixture of non-modified human hepcidin and lipocalin mutein was transferred onto the hepcidin-captured Neutravidin plate. The C-terminal biotinylated hepcidin was allowed to compete with the non-modified hepcidin for Anticalin binding for 20 min. at room temperature. During these 20 min, free lipcocalin mutein was bound to the captured hepcidin and detected via a rabbit anti-strep-tag II polyconal antibody (GenScript, USA). A goat anti-rabbit IgG-HRP conjugate (Abcam, UK) was employed as secondary detection antibody. Parallel to the competition assay, anticalin binding was determined on the same plate in a “direct” ELISA, in order to obtain a standard curve linking the RFU values to anticalin concentration. This curve was then used to standardize competition data to the level of anticalins bounds to the plate and fitted with Graphpad software. IC₅₀ values correspond to the half-maximum amount of lipocalin mutein bound to the plate.

In assay [7] the target is T3, C-terminal biotinylated human Hepcidin-25 (human, not fully specified; biotinylated via a Lysine residue coupled to the C-terminus via a Mini-PEG linker).
T3 construct: Bought from Bachem AG; Captured on plates via Neutravidin; also called C-terminal biotinylated hepcidin; C-terminal biotinylated hHepcidin
T3 peptide: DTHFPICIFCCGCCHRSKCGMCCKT
Kind of assay: direct ELISA, biotinylated hepcidin captured via Neutravidin, mutein titrated. How it is done:
as §4, §5

In assay [8] the target is B1. Put plainly: cell-based or functional assay.
The target in assay [9] is T2, cynomolgus Hepcidin-25. Put plainly: SPR (Biacore T100), mutein immobilized on CM5 chip, hepcidin-25 in solution, 1:1 model. The protocol: as §1, §2, §3
Assay [10] addresses B1. Described as above. The protocol:
as §1, §2, §3

Assay [11] deals with T3, C-terminal biotinylated human …. Put plainly: direct ELISA, biotinylated hepcidin captured via Neutravidin. How it is done: as §4, §5
Assay [12] deals with B1. Put plainly: SPR, Biacore T100, pegylated mutein amine-coupled to CM5 chip, hepcidin as analyte, 1:1 model, 25 C. How it is done: as §1, §2, §3

Sequence of murine ferroportin (FPN) carboxy-terminally fused with green fluorescent protein (GFP) (murine), Q9JHI9 (Q9JHI9 whole entry, the tested form may be a part): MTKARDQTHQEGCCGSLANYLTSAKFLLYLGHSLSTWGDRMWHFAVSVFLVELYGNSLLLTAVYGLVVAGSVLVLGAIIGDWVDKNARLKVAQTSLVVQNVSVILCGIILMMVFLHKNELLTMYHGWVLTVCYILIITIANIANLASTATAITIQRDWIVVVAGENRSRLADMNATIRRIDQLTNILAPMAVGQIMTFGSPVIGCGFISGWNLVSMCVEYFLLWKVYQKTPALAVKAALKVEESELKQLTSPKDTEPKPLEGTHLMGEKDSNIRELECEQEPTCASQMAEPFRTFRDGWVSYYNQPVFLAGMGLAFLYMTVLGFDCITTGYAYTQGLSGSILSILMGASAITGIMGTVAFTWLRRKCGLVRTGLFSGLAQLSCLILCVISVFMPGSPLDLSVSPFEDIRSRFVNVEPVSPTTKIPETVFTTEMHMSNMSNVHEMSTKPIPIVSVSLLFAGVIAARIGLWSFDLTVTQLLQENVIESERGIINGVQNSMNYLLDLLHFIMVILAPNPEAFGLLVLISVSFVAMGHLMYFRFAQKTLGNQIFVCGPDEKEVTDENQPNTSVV

Take B1: the “factor by which pegylation reduced the binding affinity (against the non-pegylated mutein)” value turned out to be 4 fold in [1] and 2 fold in assay [2]. In assay [3], this molecule came in with an EC80 of hepcidin-mediated degradation of the Fpn-GFP fusion protein (GFP fluorescence by flow cytometry) of 40 nM.

Take B2: the “fold higher affinity compared to the human target” value (“fold higher affinity” below) with cynomolgus Hepcidin-25 [4] is approximately 2 fold. Also, the Kd (as a rule, the constant that tells how readily two partners part at equilibrium) was 0.43 nM with cynomolgus Hepcidin-25 [5], 0.26 nM in [7], 0.332 nM with cynomolgus Hepcidin-25 [9] and 0.589 nM in assay [10]. Further, in assay [6], the IC50 (as a rule, the concentration at which inhibition is half-maximal) was found to be 0.34 nM. Also, the “IC50 of neutralization of hepcidin-induced (40 nM) internalization and degradation of FPN-GFP in T-REx-293 cells, GFP fluorescence by flow cytometry” value (from here on “IC50 of neutralization … by flow cytometry”) in [8] was determined as 66 nM. In addition, the koff (usually the rate constant with which the complex falls apart) is 0.000934 s⁻¹ with cynomolgus Hepcidin-25 [9] and 0.00116 s⁻¹ in [10]. Also, the kon (as a rule, a measure of how fast the partners come together) with cynomolgus Hepcidin-25 [9] turned out to be 2.84e+06 M⁻¹ s⁻¹; in assay [10], 1.97e+06 M⁻¹ s⁻¹.

As for B3, the “factor by which pegylation reduced the binding affinity (against the non-pegylated mutein)” value in assay [11] was found to be 5 fold.

In the case of B4, in assay [11], the “factor by which pegylation reduced the binding affinity (against the non-pegylated mutein)” value was 8 fold.

As to B5, the Kd is 0.04 nM in [12], 3.49 nM in assay [7] and 0.041 nM in assay [10]. Further, in the assay with cynomolgus Hepcidin-25 [4], the “fold higher affinity” value is approximately 2 fold. Besides, the IC50 in assay [6] amounted to 0.24 nM. In addition, in assay [8], the “IC50 of neutralization … by flow cytometry” value stood at 34 nM. Also, the koff in assay [10] amounted to 0.000123 s⁻¹. The molecule also yielded an on-rate constant (kon) in assay [10] of 2.98e+06 M⁻¹ s⁻¹.

For the molecule B6, the “fold higher affinity” value with cynomolgus Hepcidin-25 [4] was approximately 2 fold. For the same molecule, the Kd was determined as 0.67 nM with cynomolgus Hepcidin-25 [5], 0.66 nM in assay [7], 0.066 nM in the assay with cynomolgus Hepcidin-25 [9] and 0.123 nM in [10]. Besides, the IC50 in assay [6] stood at 0.1 nM. Also, the “IC50 of neutralization … by flow cytometry” value in assay [8] worked out at 31 nM. Moreover, the koff with cynomolgus Hepcidin-25 [9] is 0.000245 s⁻¹; in [10] it was 0.000178 s⁻¹. The kon came out at 3.74e+06 M⁻¹ s⁻¹ in the assay with cynomolgus Hepcidin-25 [9] and 1.45e+06 M⁻¹ s⁻¹ in assay [10].
